Measured values taken from a protein production outcome set (Wang et al. 2014).

Experiment: label from the status in PepcDB records
For “MAIAFHTFLLQLLLFFFASFAEANDSRKTYLVQMKVGGHRYGSSSGHQELLGEVLDDDSYKESFTGFSASLTPRERQKLMSKTTTVSSRRREVLEVSRSRNLKLQTTRSWDFMNLTLKAERNPENESDLVVAVIDSGIWPYSELFGSDSPPPPGWENKCENITCNNKIVGARSYYPKKEKYKWVEEKSVIDVTGHGTHVASIVAGRKVEKAGYFGLAEGTMRGGVPNAKIAVYKTCWRVIRKNGREDSVCREDNILKAIDDAIADKVDIISYSQGFQFTPLQKDKVSWAFLRALKNGILTSAAAGNYANNGKFYYTVANGAPWVMTVAASLKDRIFETKLELEGEDKPIIVYDTINTFETQDSFYPLLNEKAPPESTRKRELIAERNGYSILSNYDEKDKGKDVFFEFAQINLLDEAIKEREKGAIVLGGKSYDFNESIKLQFPIASIFLDEQKKGKLWDYYKKDQSKERLAKIHKTEEIPREEGWVPTVAHLSSRGPNCDSFLANILKPDIAAPGLDIIAGWPENVKLSSDRPANDYRHLRFNIMSGTSMACPHATGLALYLKSFKRWSPSAIKSALMTTSSEMTDDDNEFAYGSGHLNATKVRDPGLVYETHYQDYIDYLCKLGYNTEKLRSHVGSDKIDCSKTEIDHDADLNYPTMTARVPLPLDTPFKKVFHRTVTNVNDGEFTYLREINYRGDKDFDEIIVDPPQLKFSELGETKTFTVTVTGISKRNWNKNRAFMTRNTWLTWTEKDGSRQVRSPIVIYSIKGPKACM”, the protein production was “failed”. For “MAIAPTIQPLPAPWVARMAAGEVIDSLAAVVRELCENSLDAGTQRLVIDLWPEQWRVRVADDGMGLSLENLQLAALAHTSSKLSPDRFTAEQLGFRGEALHSLARLGRLTIASRTADAAAGWQISYDIGGQPQVATPIAIAPGCIVEVQQLFQDWLERRQSQPSPAQQLRAVQQQIQNLVLAHPSITVQVTQNDRPWLAFAPVHHPQERLLQLLPNTSPADWRSQSLDLGSEGQLQVVVGLPDRCHRRRPDWVKVAVNGRVVRVSELEQAMIGALHRSLPRDRFPVVFAHLQVPPSQVDWHRHPAKAELFLQDLPVWCERIQEAIAQTLPLDPAEEIELPASTALLRVAETTGSYSESPSHLRAIAQVLNTYVLAEQGDSLWLIEQHIAHERVLFEQLQDDWQLVACQQPILLSKLSLEQRLQLDRLGITAEDFGEDLWAIRHIPAALAQREDLVEALLELSRGWDLSAAQAAIACRTAIRNGTLLYPEEQQTLIDRWQHCRQPRTCPHGRPIALVLPETSLARYFRRQWMIGRSHGLGDP”, the protein production was “failed”. In the case of “MAICKVFRNYCKENDIQLHQANFSLSYDTNIPRQTGLSGSSAIVSAALNCLLDFYNVRHLIKVQVRPNIVLSAEKELGIVAGLQDRVAQVYGGLVHMDFSKEHMDKLGHGIYTPMDISLLPPLHLIYAENPSDSGKVHSMVRQRWLDGDEFIISSMKEVGSLAEEGRTALLNKDHSKLVELMNLNFDIRRRMFGDECLGAMNIEMVEVARRVGAASKFTGSGGAVVVFCPEGPSQVKLLEEECRKAGFTLQPVKIAPSCLNDSDIQTL”, the protein production is reported as “failed”. In the case of “MAIDVCCSEASGSGISPRISFSYDLDSTDDGEVRLDSTLLDSGSEFDFCFGSSCSVQEVSPADELFSEGKILPVQIKKEESLPQTVTFRVPRSASLSSSSSSSSSSSSSSRAPEKKMRLKELLLNPESDFEDKPRGLFLQFKRSISLNYDKSRNSKGLIRSFHFLSRSNSTPNPNLDLLPKETHHPHKTHNLPKHKPPLRRSSSLSSSSVPFYSKKPLGRNSFGNGNGGVRVSPVLNFPPPAFISNVADGFFSIGSLCNGKTNTKTKL”, the protein production is reported as “failed”. For “MAIEPSLISSLTWFAHVARHRSFTKAASEMGVTRAALSQHVKGLEKQLQVRLLNRTTRNMSLTEEGQRLLDTLHPSLSNIEQTLNSLNDLHIEPAGLIRISVSRTAARLLIEPHLGEFLSRYPKIRLELIMDDGLTNIVAEGMDAGIRLGVSLDEHMVAIPITPNLTNAIVGSPDYFKRYGKPETPNDLEHHNCLAYRFTSSGTLDHWSLTSPDVDKHTVIFEPKGNAVFNDDYSMLQAAMQGVGLIKHIDLWVLKYLEEGKLERVFVDWCKPFPGFYLYIPSRENMPKKIRVLMDFLIEKRAEL”, the protein production was “failed”. In the case of “MAIGERIRFFRNLRGMTQKYLGTVVGFPENTADIRMAQYESGSRTPKADLTENLAGVLGVSPLALSVPDIDSYLGLMHTLFTLEDRYGLTIEKGENGVSMCVDPRKGKDAAELSEMLNAWAKQAEKYHNGDISRELEHHHHHH”, the protein production is reported as “not failed”.
